Molecular target: T1, C-terminal domain of XerD (XerDC), as part of the XerDC-FtsKγ fusion protein (E. coli, UniProt P0A8P8 111-298)
T1 construct: XerD tyrosine recombinase, E. coli, residues 111 to 298 (C-terminal, catalytic domain); also called XerD C-terminal domain; XerD portion of XerDC–γ; source: overproduced from pBad24, purified (Ni2+ resin, HiTrap heparin HP, HiTrap Q HP)
T1 sequence (looked up): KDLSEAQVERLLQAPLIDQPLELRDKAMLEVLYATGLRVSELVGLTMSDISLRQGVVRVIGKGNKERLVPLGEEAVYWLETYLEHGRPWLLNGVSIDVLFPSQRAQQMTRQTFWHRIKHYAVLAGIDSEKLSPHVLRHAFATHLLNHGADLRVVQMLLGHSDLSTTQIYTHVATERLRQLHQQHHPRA
Assay: crystal structure; XerDC (XerD 111-298) and FtsKγ (FtsK 1261-1329) joined on one chain by a 16 amino acid linker; hanging drop, 100 mM Bicine (pH9), 10% (w/v) polyethylene glycol 8000; molecular replacement, 2.3 Å
Details: both partners purified

binding result: binds
B1: FtsKγ domain, as part of the XerDC-FtsKγ fusion protein (domain or fragment, E. coli, UniProt P46889 1261-1329, looked up)
chain: GAEELDPLFDQAVQFVTEKRKASISGVQRQFRIGYNRAARIIEQMEAQGIVSEQGHNGNREVLAPPPFD
notes: FtsK DNA translocase, E. coli, residues 1261 to 1329 (γ domain, very C-terminus); In the functional rows with m4 it is the γ portion of the full length XerD-FtsKγ fusion, from which the crystallised fusion was amplified; also called γ domain of FtsK; source: overproduced from pBad24, purified (Ni2+ resin, HiTrap heparin HP, HiTrap Q HP)

From article PMC5052618, “Activation of Xer-recombination at dif: structural basis of the FtsKγ–XerD interaction” (Scientific Reports, 2016)
